The supplement of paper PMC7125110
± gives the standard error. This sample holds only a part of the variants without activity.

B1: glmS ribozyme (parent)
chain: AUAAAAGCGCCAGAACUACAGAAAUGUAGUUGACGAGGAGGAGGUUUAUCGAAUUUUCGGCGGAUGCCUCCAAA

Tests used:
Conditions in all cases: with glucosamine-6-phosphate
glucosamine-6-phosphate [1] = variants of: B1; assay: self-cleavage kobs at 40 uM GlcN6P; higher = faster cleavage; RNA array
Method in brief: (§1)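 Glucosamine-6-phosphate (40 μM to 10 mM) in HEPES/KCl/Mg(OAc)2 buffer was flowed over sequenced MiSeq chips, and tiles were imaged over ~14 h. Barcoded ribozyme variants there had been transcribed in situ by E. coli RNA polymerase and were tracked through a hybridised Cy3 probe at 37 °C. One- or two-exponential decay fits to per-tile medians, normalised to baseline and to non-cleaving reference variants, gave kobs. kcat and KM came from weighted Michaelis–Menten fits across concentrations.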

glucosamine-6-phosphate [2] = variants of: B1; assay: self-cleavage kobs at 640 uM GlcN6P; higher = faster cleavage; RNA array
Method in brief: as §1

glucosamine-6-phosphate [3] = variants of: B1; assay: self-cleavage kobs at 2500 uM GlcN6P; higher = faster cleavage; RNA array
Method in brief: as §1

glucosamine-6-phosphate [4] = variants of: B1; assay: self-cleavage kobs at 10000 uM GlcN6P; higher = faster cleavage; RNA array
Method in brief: as §1

glucosamine-6-phosphate [5] = variants of: B1; assay: self-cleavage kobs at 160 uM GlcN6P; higher = faster cleavage; RNA array
Method in brief: as §1

Variant	self-cleavage kobs at 40 uM GlcN6P (glucosamine-6-phosphate [1]) [s⁻¹]	self-cleavage kobs at 640 uM GlcN6P (glucosamine-6-phosphate [2]) [s⁻¹]	self-cleavage kobs at 2500 uM GlcN6P (glucosamine-6-phosphate [3]) [s⁻¹]	self-cleavage kobs at 10000 uM GlcN6P (glucosamine-6-phosphate [4]) [s⁻¹]	self-cleavage kobs at 160 uM GlcN6P (glucosamine-6-phosphate [5]) [s⁻¹]
AUAAAAGCGCCAGAACUACAGAAAUGUAGUUGACGAGGAGGAGGUUUAUGGAAUUUUCGGCGGAUGUUUCUAAA [C50G C67U C68U C71U]	0.000172 ± 4.1e-05	0.000393 ± 0.00011	0.000127 ± 3e-05	7.29e-05 ± 1.3e-05	–
AUAAAAGCGCCAGAAUUACAGAAAUGUAGUUGACGAGGAGGAGGUUUAUCAAAUUUUCGGCGGAUGCCUCCAAA [C16U G51A]	< 1e-05	–	–	–	< 1e-05
AUAAAGGCGCCUGAACUACAGAAAUGUAGUUGACGAGGAGGAGGUUUAUCGAAUUUUCGGCGGAUACCUCCAAA [A6G A12U G66A]	< 1e-05	–	0.000132 ± 3.5e-05	7.44e-05 ± 2.2e-05	–
AUAAAAGCGCCAGAACUACAGAAAUGUAGUUGACGAGGAUGAGGUUUAUCGAAUUAUCGGCUGAUGGCUCCAAA [G40U U56A G62U C67G]	< 1e-05	< 1e-05	< 1e-05	–	< 1e-05
AUAAAAGCGCCAGAACUACAGAAAUGUAGUUGACGAGGAUCGGGUUUAUCGGAUUGUCGUCGGAUGCCUCCAAA [G40U G41C A42G A52G U56G G60U]	< 1e-05	< 1e-05	< 1e-05	–	–
AUAAAAGCGGCAGAUCUACAGAAAUGUAGUUGACGUGAAGGAGGUUUAUCGAGUUUUCGGCGGAUGCGUUCAAA [C10G A15U A36U G38A A53G C68G C70U]	0.000148 ± 4.5e-05	–	–	–	–
AUAAAAGCGCCAGAACUACAGAAAUGUACUUGACGAGGAGGAGGUUUAUCGAAUUUUCGGCGGUUGCCUCCAAA [G29C A64U]	< 1e-05	–	–	–	< 1e-05
AUAAAAGCGCCAGAACUACAGAAAUGUAGUUGACGAGGAGCAGGUUUAUCGAAUUUUCGGCGGAUGCCUGCAAA [G41C C70G]	0.0028 ± 0.00025	0.023 ± 0.0035	0.0672 ± 0.025	–	0.00588 ± 0.00089
AUAAAAGCGCCAGAACUACAGAAAUGUAGUUGACGAGGAUUAGGUACAUCUAAUUUUCGGCGGAUGCCUCCAAA [G40U G41U U46A U47C G51U]	< 1e-05	–	–	–	–
CUAAAAGCGCUAGAACUACAGAAAUGUAGUUGACGAGGAGGAGGUUUAUCGAAUUUUCGGCGGGUGCCUCCAAA [A1C C11U A64G]	8.55e-05 ± 2.5e-05	–	–	0.00142 ± 0.00035	–
AUAAAGGCGCCAGAGCUACAGAAAUGUAGUUGACGAGGAGGAGGUUUAUCGAAUUUUCGGCGGAUUCCUUCAAA [A6G A15G G66U C70U]	< 1e-05	–	–	–	–
AUAAAAGCGCCAGAACUACAGAAAUGUAGUUGACGAGCAGGACGUUUAUCGAAUUUUCGGCGGAUGCCUCCAAA [G38C G43C]	< 1e-05	–	–	–	–
AUAAAAGAGCCAGAACUACAGAAAUGUAGUUGAUUAGGAGGAAGGUUAUCGAACUUUCGGCGGAUGCCUCCAAA [C8A C34U G35U G43A U45G U54C]	< 1e-05	–	–	< 1e-05	–
AUAAAAGCGCCAGAACUACAGAAAUGUAGUUGACUACGAGGAGGUUUAUCGAAUUGUCGGCGGAUGCCUCCAAA [G35U G37C U56G]	< 1e-05	< 1e-05	< 1e-05	–	–
AUAAAAGCGCCAGAACUACAGAAAUGUAGUUGACGAGGAGGAGGUUGAGGAAAUUUUCGGAGGAUGCCUCCAAA [U47G U49G C50G G51A C61A]	9.02e-05 ± 2.3e-05	–	–	0.000142 ± 3.3e-05	–
AUAAAAGCGACAGAACUACAGAAAUGUAGUUGACGAGUAGGAGGUUUAUCGAAUUUUCAACAGUUCCGUCCAAA [C10A G38U G59A G60A G62A A64U G66C C68G]	0.000187 ± 6.6e-05	–	–	–	–
AUAAAAGCGCGAGAACUACAGAAAUGUAGUUGACGAGGAGGAGCUUUAUCGAAUUUUCGACGGAUGCCUCCAAA [C11G G44C G60A]	< 1e-05	–	–	< 1e-05	< 1e-05
